Laboratory results published in patent US20260374887 (published 2026).

Biological target: BAFF-R (human, UniProt Q96RJ3)
Assay: other, in vitro experiments

Chain of BAFF-R (Q96RJ3 7-71): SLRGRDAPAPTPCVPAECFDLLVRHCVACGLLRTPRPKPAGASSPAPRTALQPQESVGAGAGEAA

B1: ianalumab (VAY736) (antibody, V domains shown)
VH: QVQLQQSGPGLVKPSQTLSLTCAISGDSVSSNSAAWGWIRQSPGRGLEWLGRIYYRSKWYNSYAVSVKSRITINPDTSKNQFSLQLNSVTPEDTAVYYCARYDWVPKIGVFDSWGQGTLVTVSS
VL: DIVLTQSPATLSLSPGERATLSCRASQFISSSYLSWYQQKPGQAPRLLIYGSSSRATGVPARFSGSGSGTDFTLTISSLEPEDFAVYYCQQLYSSPMTFGQGTKVEIKR
  Kd: 0.046 nM
